Test results as given in patent US20240034786A1 (WUXI BIOLOGICS IRELAND, published 2024).

Legend:
[1] = target: T1, Human P-cadherin on cells (human, UniProt P22223 108-829); assay: cell-based or functional assay
[2] = target: T1, Human P-cadherin on cells; assay: FACS on NCI-H1650 cells
Description: Binding of the test antibodies to P-cadherin expressed on cells was determined by flow cytometry analysis. […] 1×10⁵ cells/well (100 μL) were added to each well of a 96-well U-plate (Corning, #3799) and centrifuged at 1500 rpm (Eppendorf, #5810R) for 5 minutes before removing the supernatant. Antibodies serially diluted in 1% BSA/1×PBS (Ca+/Mg+) were added at 100 μL/well to the pelleted cells and incubated at 4° C. for 1 hour. Anon-related hIgG1 antibody was used as an isotype control. Cells were washed two times with 180 μL/well of 1% BSA/1×PBS (Ca+/Mg+) by centrifugation at 1500 rpm for 5 minutes at 4° C. Pelleted cells were resuspended in 100 μL/well Alexa647 conjugated Goat anti-human IgG Fc (Jackson, #109-605-098) 1:500 diluted in 1% BSA/1×PBS (Ca+/Mg+) for 30 minutes at 4° C. in the dark. Cells were then washed two times as described above. After the final wash, cells were resuspended in 100 μL 1% BSA/1×PBS (Ca+/Mg+) and fluorescence values were measured with a FACS Canto II cytometer (BD Biosciences). The amount of cell surface bound anti-P-cadherin antibody was assessed by measuring the mean fluorescence (MFI). The FACS raw data were analyzed by FlowJo software, wells containing no antibody or secondary antibody only were used to establish background fluorescence. Binding EC50 values were obtained by the four-parameter non-linear regression analysis using GraphPad Prism6 software.

[3] = target: T1, Human P-cadherin on cells; assay: FACS affinity test on DU-145 cells
Description: Antibodies to be tested were serially diluted in 1×PBS/1% BSA and incubated with cells at 4° C. for 1 h. The plates were centrifuged and the supernatant was discarded. The cells were then incubated with Alexa647 conjugated goat anti-human IgG Fc (Jackson) at 4° C. in the dark for 30 min. After washing the cells were re-suspended in 100 μL 1×PBS/1% BSA, and fluorescence intensity was measured by flow cytometry (BD Canto II) and analyzed by FlowJo. The fluorescence intensity was converted to bound molecules/cell based on the quantitative beads standard curve (Quantum™ MESF Kits, Bangs Laboratories). KD was calculated by Graphpad Prism5.

[4] = target: T1, Human P-cadherin on cells; assay: FACS on HCT-116 cells, antibody kept in human serum at 37 C, Day 14
Description: The antibody stability in human serum was tested by FACS. Briefly, human serum was freshly isolated by centrifuging the fresh blood twice at 4000 rpm for 10 minutes. […] As a control, antibodies serum mix was frozen immediately without 37° C. incubation. For the FACS analysis, the samples from different time points were free-thawed simultaneously at 4° C. […] The cells were washed twice with 1% BSA/1×PBS (Ca+/Mg+). Alexa647 conjugated Goat anti-human IgG Fc (Jackson, #109-605-098) 1:500 diluted in 1% BSA/1×PBS (Ca+/Mg+) were added to the cells and incubated at 4° C. for 30 minutes. Cells were washed twice in the same buffer and the mean fluorescence (MFI) of stained cells was measured using a FACS Canto II cytometer (BD Biosciences) and analyzed by FlowJo. Wells containing no antibody or secondary antibody only were used to establish background fluorescence. Four-parameter non-linear regression analysis was used to obtain EC50 values for cell binding using GraphPad Prism6 software.

T1 sequence (P22223 108-829): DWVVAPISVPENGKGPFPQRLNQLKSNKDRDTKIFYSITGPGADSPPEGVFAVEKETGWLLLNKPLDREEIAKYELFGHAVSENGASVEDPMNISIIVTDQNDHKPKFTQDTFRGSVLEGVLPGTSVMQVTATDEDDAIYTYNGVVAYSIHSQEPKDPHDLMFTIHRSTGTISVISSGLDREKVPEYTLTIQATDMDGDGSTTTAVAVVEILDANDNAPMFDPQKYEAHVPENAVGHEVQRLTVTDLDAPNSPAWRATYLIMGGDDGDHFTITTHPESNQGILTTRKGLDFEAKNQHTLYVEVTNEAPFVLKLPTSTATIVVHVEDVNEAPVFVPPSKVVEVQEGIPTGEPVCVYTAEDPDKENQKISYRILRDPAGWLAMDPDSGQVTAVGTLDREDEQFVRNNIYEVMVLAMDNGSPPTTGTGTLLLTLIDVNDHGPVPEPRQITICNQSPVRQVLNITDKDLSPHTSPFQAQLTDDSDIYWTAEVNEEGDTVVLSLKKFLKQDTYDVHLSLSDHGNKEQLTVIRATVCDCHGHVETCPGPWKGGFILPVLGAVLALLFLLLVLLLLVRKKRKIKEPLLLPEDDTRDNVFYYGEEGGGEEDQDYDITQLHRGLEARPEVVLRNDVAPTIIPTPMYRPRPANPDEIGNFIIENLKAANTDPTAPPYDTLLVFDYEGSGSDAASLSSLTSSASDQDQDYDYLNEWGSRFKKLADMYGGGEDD

- cell aggregation assay on DU-145, EC50 [1]: 0.39 nM
- cell aggregation assay on DU-145, Max Fold change [1]: 1.75 fold
- EC50 [2]: 0.22 nM
- Kd [3]: 0.034 nM
- EC50 [4]: 0.2 nM
B1: W3195-1.53.1-p1-uIgG1L (antibody)
heavy: not shown
light: SYELTQPPSVSVSPGQTAQITCSGDKLGDKFASWYQQKSGQSPVVVIYQDNKRPSGFPERFSGSNSGNTATLTISGTQAMDEADYYCQAWDSSIVVFGGGTKLTVLGQPKAAPSVTLFPPSSEELQANKATLVCLISDFYPGAVTVAWKADSSPVKAGVETTTPSKQSNNKYAASSYLSLTPEQWKSHRSYSCQVTHEGSTVEKTVAPTECS
notes: also called W3195-p1 antibody
